The record followed here is patent US6855873.

For assay [1], the target named is ICP receptor sites on brush border membrane vesicles of Heliothis virescens (Heliothis virescens).
In assay [2] the target is ICP receptor sites on brush border membrane vesicles of Manduca sexta (reference, non-selected strain) (Manduca sexta).
The target in assay [3] is ICP receptor sites on brush border membrane vesicles of the Dipel-resistant Plutella xylostella strain PxR (Plutella xylostella). The assay can be described thus: cell-based or functional assay. Details: unit not given beside the values.
Assay [4] concerns the target ICP receptor sites on brush border membrane vesicles of the sensitive Plutella xylostella strain PxS (Plutella xylostella). The assay can be described thus: cell-based or functional assay. Set-up: unit not given beside the values.
Assay [5] addresses ICP receptor sites on brush border membrane vesicles of Manduca sexta (reference, non-selected strain) (Manduca sexta). As to the kind of experiment: cell-based or functional assay.
The target of assay [6] is ICP receptor sites on brush border membrane vesicles of the Bt18 selected Manduca sexta strain (Manduca sexta). As to the kind of experiment: cell-based or functional assay.
Assay [7] addresses ICP receptor sites on brush border membrane vesicles of the Bt2 selected Manduca sexta strain (Manduca sexta). The assay can be described thus: cell-based or functional assay.
Assay [8] addresses ICP receptor sites on brush border membrane vesicles of the sensitive Plutella xylostella strain PxS (Plutella xylostella). The assay can be described thus: 125I-toxin binding on P. xylostella BBMV.
The target of assay [9] is ICP receptor sites on brush border membrane vesicles of the Bt18 selected Manduca sexta strain (Manduca sexta).
The target in assay [10] is ICP receptor sites on brush border membrane vesicles of Heliothis virescens (Heliothis virescens). The assay can be described thus: 125I-toxin competition binding on BBMV, filtration, LIGAND analysis.
For assay [11], the target named is ICP receptor sites on brush border membrane vesicles of Manduca sexta (reference, non-selected strain) (Manduca sexta). Described as above.
For assay [12], the target named is ICP receptor sites on brush border membrane vesicles of the Bt2/Bt18 selected Manduca sexta strain (Manduca sexta).
For assay [13], the target named is ICP receptor sites on brush border membrane vesicles of Pieris brassicae (Pieris brassicae). As to the kind of experiment: 125I-toxin competition binding on P. brassicae BBMV, LIGAND analysis.
The target in assay [14] is ICP receptor sites on brush border membrane vesicles of Manduca sexta (reference, non-selected strain) (Manduca sexta). This is another data set of the same source.
Assay [15] concerns the target ICP receptor sites on brush border membrane vesicles of the Dipel-resistant Plutella xylostella strain PxR (Plutella xylostella). As to the kind of experiment: 125I-toxin binding on P. xylostella BBMV.
Assay [16] addresses ICP receptor sites on brush border membrane vesicles of Manduca sexta (reference, non-selected strain) (Manduca sexta). This is another data set of the same source.
For assay [17] the target is unchanged. This is another data set of the same source.

Values joined by “and” are separate entries in the source; they are usually repeats but may differ in a detail not shown here. Equal values may be shown once. Read-outs that look alike come from different tables or passages of the source.

Chain of Bt14 toxin (P0A374 30-647 limits assumed): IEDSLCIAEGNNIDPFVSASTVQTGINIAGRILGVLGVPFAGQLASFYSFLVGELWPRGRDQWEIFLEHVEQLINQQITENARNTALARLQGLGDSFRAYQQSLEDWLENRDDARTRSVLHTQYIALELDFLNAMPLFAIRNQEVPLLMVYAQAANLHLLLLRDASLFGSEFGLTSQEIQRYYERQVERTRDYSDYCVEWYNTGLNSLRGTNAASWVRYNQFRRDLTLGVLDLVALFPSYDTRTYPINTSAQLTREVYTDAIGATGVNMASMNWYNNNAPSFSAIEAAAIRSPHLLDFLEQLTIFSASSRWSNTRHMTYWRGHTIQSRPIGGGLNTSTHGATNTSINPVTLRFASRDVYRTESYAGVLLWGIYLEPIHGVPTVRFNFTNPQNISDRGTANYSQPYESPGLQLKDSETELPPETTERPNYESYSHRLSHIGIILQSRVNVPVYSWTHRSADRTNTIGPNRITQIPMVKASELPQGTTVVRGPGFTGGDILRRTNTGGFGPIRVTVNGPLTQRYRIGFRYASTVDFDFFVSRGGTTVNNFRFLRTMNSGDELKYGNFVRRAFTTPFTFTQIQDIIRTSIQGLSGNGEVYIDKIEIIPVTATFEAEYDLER
Chain of Bt3 toxin (P0A366 29-618 limits assumed): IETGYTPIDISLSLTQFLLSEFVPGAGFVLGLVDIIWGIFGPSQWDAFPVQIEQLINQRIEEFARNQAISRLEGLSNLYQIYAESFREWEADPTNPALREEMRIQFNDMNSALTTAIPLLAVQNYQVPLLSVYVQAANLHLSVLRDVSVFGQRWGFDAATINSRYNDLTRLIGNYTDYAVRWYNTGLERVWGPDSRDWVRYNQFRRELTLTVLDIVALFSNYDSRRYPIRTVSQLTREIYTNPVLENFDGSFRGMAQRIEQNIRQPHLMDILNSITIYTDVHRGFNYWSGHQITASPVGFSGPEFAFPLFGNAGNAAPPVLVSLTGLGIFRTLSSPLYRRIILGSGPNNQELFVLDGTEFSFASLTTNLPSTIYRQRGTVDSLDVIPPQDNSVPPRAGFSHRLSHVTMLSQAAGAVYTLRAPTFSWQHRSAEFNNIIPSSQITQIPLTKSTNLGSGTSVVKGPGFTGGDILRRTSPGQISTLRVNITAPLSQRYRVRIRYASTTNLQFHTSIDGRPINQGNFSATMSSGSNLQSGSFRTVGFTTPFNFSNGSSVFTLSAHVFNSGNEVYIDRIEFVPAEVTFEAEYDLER

By Kd is commonly meant the concentration at which binding is half-saturated. For “Bt2 toxin (from UniProt P0A370 29-607) (ligand)”, the values for the amount bound with labeled toxin alone (cpm) in assay [1] and in [2] were 1780 cpm and 1820 cpm, respectively. Further, the LC50 (larval mortality, artificial diet) (ng protein per cm^2 of artificial diet) in assay [3] was greater than 1350; in assay [4], 6.7. Moreover, the LC50 (Bt2 sensitivity) in assay [5] was determined as 20 ng/cm^2; in [6] it was 4 ng/cm^2. Besides, in [7], the LC50 of the 20th generation was found to be 6400 µg/g. For the same substance, the Kd amounted to 8.1 nM in assay [8]; 0.4 nM in assay [9]; 0.6 nM in assay [10]; 0.4 nM in assay [11]; 0.4 nM in assay [12]; 2.8 nM in assay [13]. In assay [8], the Rt (binding site concentration) (pmol/mg protein) was determined as 1.6. Moreover, the Rt (binding site concentration) (pmoles/mg vesicle protein) in assay [9] is 20.8. For the same substance, the Rt (binding site concentration) (pmol/mg vesicle protein) in [10] is 9.7; in assay [11], 3.4; in [12] it was 3.4; in assay [13], 12.9.

Consider “Bt3 toxin (from UniProt P0A366 29-618) (ligand)”, for which the amount bound with labeled toxin alone (cpm) was determined as 472 cpm in assay [1] and 601 cpm in assay [2]. Besides, the dissociation constant (Kd) was determined as 1.2 nM in assay [10] and 1.5 nM in [11]. The figures for the Rt (binding site concentration) (pmol/mg vesicle protein) in assay [10] and in [11] were 3.7 and 9.8, respectively.

Regarding “Bt14 toxin (from UniProt P0A374 30-647) (ligand)”, in [13], the Kd was 8.4 nM and the Rt (binding site concentration) (pmol/mg vesicle protein) came out at 21.4.

As for “Bt15 toxin (from UniProt P0A376 28-627) (ligand)”, the equilibrium dissociation constant (Kd) in assay [14] was 0.3 nM and 2.9 nM; in assay [15] it was 3.7 nM; in [8], 1.9 nM. The LC50 (larval mortality, artificial diet) (ng protein per cm^2 of artificial diet) is 120 in assay [3] and 133 in assay [4]. Further, the Rt (binding site concentration) (pmol/mg protein) in assay [15] came to 5.8; in [8] it was 4.2. The substance also yielded a Rt1 (binding site concentration) (pmol/mg vesicle protein) in assay [16] of 5.9. The Rt2 (binding site concentration) (pmol/mg vesicle protein) in assay [17] came out at 6.7.

“Bt73 toxin (from UniProt P05068 29-623) (ligand)”: the values for the amount bound with labeled toxin alone (cpm) in assay [1] and in assay [2] were 6610 cpm and 2380 cpm, respectively. Moreover, the Kd in assay [10] was 0.8 nM; in assay [11], 0.6 nM. Besides, the Rt (binding site concentration) (pmol/mg vesicle protein) in assay [10] came to 19.5; in assay [11], 4.
